From patent US20220169722A1 (WUXI BIOLOGICS IRELAND, published 2022)
Where two headings read alike, the source gives them in different places.

Legend:
[1] = target: T1, mouse LAG-3 on transfected cells (mouse, UniProt Q61790 24-521); test: FACS on mouse LAG-3 transfected cells
T1 construct: whole, on cells; Flp-In-CHO cells transfected with mouse LAG-3; also called cell surface mouse LAG-3; murine LAG-3
T1 sequence (looked up): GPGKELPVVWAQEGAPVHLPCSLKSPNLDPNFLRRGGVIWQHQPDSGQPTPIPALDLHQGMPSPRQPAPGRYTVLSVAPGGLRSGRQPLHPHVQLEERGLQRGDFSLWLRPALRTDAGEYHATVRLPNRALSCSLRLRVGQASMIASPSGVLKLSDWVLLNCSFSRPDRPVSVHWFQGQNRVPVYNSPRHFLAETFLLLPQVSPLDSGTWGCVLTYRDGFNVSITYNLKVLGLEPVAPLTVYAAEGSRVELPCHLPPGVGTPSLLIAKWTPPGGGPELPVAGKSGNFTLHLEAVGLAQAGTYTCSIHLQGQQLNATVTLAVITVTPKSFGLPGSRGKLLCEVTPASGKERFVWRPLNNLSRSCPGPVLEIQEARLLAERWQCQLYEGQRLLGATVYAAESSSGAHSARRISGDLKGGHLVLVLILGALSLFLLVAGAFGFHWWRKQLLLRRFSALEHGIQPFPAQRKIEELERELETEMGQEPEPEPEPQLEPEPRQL
Procedure: (§1) Similarly, cross-reactivity to cynomolgus or murine LAG-3 was tested by FACS with cyno or murine LAG-3 transfected cell lines.

[2] = target: T2, mouse Fc (mFc)-tagged human LAG-3 (human, UniProt P18627 23-450); test: ELISA blocking: antibody pre-mixed with mFc-tagged human LAG-3, added to plates coated with human LSECtin (blocked ligand); detection goat anti-mouse IgG Fc-HRP
T2 construct: extracellular domain
T2 sequence (looked up): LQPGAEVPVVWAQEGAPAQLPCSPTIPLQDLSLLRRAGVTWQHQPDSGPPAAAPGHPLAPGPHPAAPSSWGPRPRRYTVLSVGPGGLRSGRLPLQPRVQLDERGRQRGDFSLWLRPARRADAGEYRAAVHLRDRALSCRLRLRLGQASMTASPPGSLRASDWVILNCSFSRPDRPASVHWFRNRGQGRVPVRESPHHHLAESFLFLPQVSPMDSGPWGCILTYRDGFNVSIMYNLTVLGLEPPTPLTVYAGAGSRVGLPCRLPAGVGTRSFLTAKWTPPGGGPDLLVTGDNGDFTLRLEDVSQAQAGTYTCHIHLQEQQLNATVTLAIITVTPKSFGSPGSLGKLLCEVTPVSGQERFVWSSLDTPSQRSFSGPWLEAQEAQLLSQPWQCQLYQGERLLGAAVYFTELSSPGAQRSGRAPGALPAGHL
Procedure: (§2) 96-well plates were coated with human LSECtin or Galectin-3 at 0.5 μg/ml overnight at 4° C., respectively. […] After blocking and washing, the mixture was transferred to the plates and incubated at room temperature for 1 h. The plates were then washed and subsequently incubated with the secondary antibody goat-anti Mouse IgG Fc-HRP for 1 h. After washing, TMB substrate was added and the color reaction was stopped by 2M HCl. The absorbance at 450 nm was read using a microplate reader.

[3] = target: T3, human LAG-3 protein (SPR analyte) (human, UniProt P18627 23-450); test: SPR Biacore 8K, Ab as ligand, LAG-3 as analyte
T3 construct: extracellular domain
T3 sequence (looked up): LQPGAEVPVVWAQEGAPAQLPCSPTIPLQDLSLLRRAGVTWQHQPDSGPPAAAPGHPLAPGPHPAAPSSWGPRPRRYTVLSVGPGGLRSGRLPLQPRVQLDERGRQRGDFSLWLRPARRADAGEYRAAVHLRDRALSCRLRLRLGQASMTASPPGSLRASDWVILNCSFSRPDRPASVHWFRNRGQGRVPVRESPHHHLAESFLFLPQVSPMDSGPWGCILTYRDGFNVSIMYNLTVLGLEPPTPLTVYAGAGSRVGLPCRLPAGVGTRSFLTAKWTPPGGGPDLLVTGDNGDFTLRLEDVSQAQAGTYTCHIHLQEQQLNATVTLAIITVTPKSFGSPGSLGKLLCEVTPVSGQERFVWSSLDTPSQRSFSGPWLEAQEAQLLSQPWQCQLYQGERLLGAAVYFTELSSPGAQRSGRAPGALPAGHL

[4] = target: T4, mouse LAG-3 protein (SPR analyte) (mouse, UniProt Q61790 24-442); test: SPR Biacore 8K, Ab as ligand, LAG-3 as analyte
T4 construct: extracellular domain
T4 sequence (looked up): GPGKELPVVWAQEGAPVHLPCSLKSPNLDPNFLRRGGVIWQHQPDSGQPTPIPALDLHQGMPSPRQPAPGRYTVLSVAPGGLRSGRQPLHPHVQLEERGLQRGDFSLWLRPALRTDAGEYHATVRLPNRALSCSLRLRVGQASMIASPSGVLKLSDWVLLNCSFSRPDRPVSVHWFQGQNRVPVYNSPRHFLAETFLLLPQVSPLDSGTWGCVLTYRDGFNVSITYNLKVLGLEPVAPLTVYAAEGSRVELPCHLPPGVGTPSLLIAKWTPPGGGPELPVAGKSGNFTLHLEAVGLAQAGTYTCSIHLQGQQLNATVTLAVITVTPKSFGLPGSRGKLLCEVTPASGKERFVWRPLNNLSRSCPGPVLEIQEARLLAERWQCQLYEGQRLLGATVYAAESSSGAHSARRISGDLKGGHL

[5] = target: T5, human LAG-3 on transfected cells (human, UniProt P18627 23-525); test: FACS affinity on transfected cells
T5 construct: whole, on cells; Flp-In-293 or CHO-K1 cells transfected with full length human LAG-3; also called cell surface human LAG-3
T5 sequence (looked up): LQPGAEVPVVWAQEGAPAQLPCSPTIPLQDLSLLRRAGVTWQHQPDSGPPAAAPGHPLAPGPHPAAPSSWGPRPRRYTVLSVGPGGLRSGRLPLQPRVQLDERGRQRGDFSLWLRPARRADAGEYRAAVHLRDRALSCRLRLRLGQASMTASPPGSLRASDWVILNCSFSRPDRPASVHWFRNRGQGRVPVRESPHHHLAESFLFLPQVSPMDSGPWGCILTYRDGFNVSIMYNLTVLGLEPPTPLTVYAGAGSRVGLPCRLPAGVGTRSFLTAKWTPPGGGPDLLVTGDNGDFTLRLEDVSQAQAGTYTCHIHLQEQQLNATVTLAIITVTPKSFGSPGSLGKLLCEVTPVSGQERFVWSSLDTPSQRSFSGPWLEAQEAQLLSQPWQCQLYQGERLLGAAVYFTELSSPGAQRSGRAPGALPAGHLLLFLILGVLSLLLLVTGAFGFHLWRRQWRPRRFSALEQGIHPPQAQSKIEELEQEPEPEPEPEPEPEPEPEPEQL

[6] = target: T6, cynomolgus LAG-3 on transfected cells (cynomolgus monkey); test: FACS affinity on transfected cells
T6 construct: whole, on cells; 293F cells transfected with cynomolgus LAG-3; also called cell surface cynomolgus LAG-3; monkey LAG-3

[7] = target: T5, human LAG-3 on transfected cells; test: FACS, serial dilutions on human LAG-3 transfected cells, PE-labeled secondary antibody
[8] = target: human CD4 (human, UniProt P01730 26-390, limits assumed); test: ELISA, plates coated with human CD4, goat anti-human IgG Fc-HRP
Procedure: Cross-reactivity to human CD4 was measured by ELISA. Plates were coated with human CD4 at 1 μg/ml overnight at 4° C. After blocking and washing, 1 μg/ml of LAG-3 antibodies were added to the plates and incubated at room temperature for 1 h. The plates were then washed and subsequently incubated with goat-anti human IgG Fc-HRP for 45 min. After washing, TMB substrate was added and the color reaction was stopped by 2M HCl. The absorbance at 450 nm was read using a microplate reader.

[9] = target: T2, mouse Fc (mFc)-tagged human LAG-3; test: ELISA blocking: antibody pre-mixed with mFc-tagged human LAG-3, added to plates coated with human Galectin-3 (blocked ligand); detection goat anti-mouse IgG Fc-HRP
Procedure: as §2

[10] = target: T5, human LAG-3 on transfected cells; test: FACS affinity on transfected cells; remark: listed apart in the source
[11] = target: T1, mouse LAG-3 on transfected cells; test: FACS affinity on transfected cells
[12] = target: T6, cynomolgus LAG-3 on transfected cells; test: FACS affinity on transfected cells; remark: listed apart in the source
[13] = target: T6, cynomolgus LAG-3 on transfected cells; test: FACS, serial dilutions on cynomolgus LAG-3 transfected cells, PE-labeled secondary antibody
Procedure: as §1

[14] = target: T2, mouse Fc (mFc)-tagged human LAG-3; test: FACS blocking: antibody pre-mixed with mFc-tagged human LAG-3, added to Raji cells; blocked ligand: human MHC-II on Raji cells; detection goat anti-mouse IgG Fc-PE
Procedure: The mixture was transferred into the 96-well plates seeded with Raji cells. Goat anti-mouse IgG Fc-PE antibody was used to detect the binding of LAG-3 protein to Raji cells. The mean fluorescence intensity (MFI) was evaluated by flow cytometry and analyzed by FlowJo.

[15] = target: T2, mouse Fc (mFc)-tagged human LAG-3; test: ELISA blocking: antibody pre-mixed with mFc-tagged human LAG-3, added to plates coated with human Galectin-3 (blocked ligand); detection goat anti-mouse IgG Fc-HRP; remark: listed apart in the source
Procedure: as §2

[16] = target: T7, mFc-tagged mouse LAG-3 (mouse, UniProt Q61790 24-442); test: FACS competition; blocks mFc-mouse LAG-3 binding to MHC-II on A20 cells
T7 construct: extracellular domain; also called mFc-tagged mouse protein
T7 sequence (looked up): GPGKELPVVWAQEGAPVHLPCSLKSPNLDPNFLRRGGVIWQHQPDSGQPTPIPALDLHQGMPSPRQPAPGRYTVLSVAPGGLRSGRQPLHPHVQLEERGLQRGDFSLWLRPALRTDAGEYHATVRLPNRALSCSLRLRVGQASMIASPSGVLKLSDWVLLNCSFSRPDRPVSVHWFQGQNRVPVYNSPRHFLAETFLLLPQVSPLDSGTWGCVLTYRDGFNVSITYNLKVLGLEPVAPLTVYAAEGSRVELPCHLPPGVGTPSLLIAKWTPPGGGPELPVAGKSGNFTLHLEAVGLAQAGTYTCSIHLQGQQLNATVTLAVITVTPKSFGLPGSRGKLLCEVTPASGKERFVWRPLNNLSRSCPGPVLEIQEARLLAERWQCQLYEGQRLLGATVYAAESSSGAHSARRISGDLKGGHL

[17] = target: T6, cynomolgus LAG-3 on transfected cells; test: FACS on cynomolgus LAG-3 transfected cells
Procedure: as §1

[18] = target: T5, human LAG-3 on transfected cells; test: FACS on human LAG-3 transfected cells with serum-treated antibody, PE-labeled goat anti-human IgG
Procedure: On indicated time points (day 0, day 1, day 4, day 7 and day 14), an aliquot of serum treated sample were removed from the incubator and snap frozen in liquid N2, and then stored at −80° C. until ready for test. All the samples were quickly thawed prior to the stability test. […] MFI of the cells was measured by a flow cytometry and analyzed by FlowJo.

[19] = target: T3, human LAG-3 protein (SPR analyte); test: SPR Biacore 8K, Ab captured on anti-human Fc, LAG-3 as analyte
[20] = target: T4, mouse LAG-3 protein (SPR analyte); test: as above
[21] = target: T2, mouse Fc (mFc)-tagged human LAG-3; test: ELISA blocking: antibody pre-mixed with mFc-tagged human LAG-3, added to plates coated with human LSECtin (blocked ligand); detection goat anti-mouse IgG Fc-HRP; remark: listed apart in the source
Procedure: as §2

B1: W3396-R2-2 (Fc fusion)
VHH: QVQLVESGGGVVQPGGSLRLSCAASGLTLSQYTMGWFRQAPGKERELVAAIHWTSSVTDYADSVYGRFTISRDDSKNTGYLQMNSLRAEDTAVYYCAATHYYTHRGPFDYWGQGTLVTVSS
B1 showed an EC50 [1] of 0.13 nM, an IC50 [2] of 1.61 nM and a Kd [3] of 0.165 nM. The Kd [4] was < 0.000575 nM, the Kd [5] was 0.46 nM and the Bmax [6] was 300 pM. The EC50 [7] was 0.228 nM, the binding result [8] was “no binding (tested: 33.4 nM)” and the IC50 [9] was 1.23 nM.

B2: W3396-R2-13 (Fc fusion)
VHH: QVQLVESGGGVVQPGGSLRLSCAASGLTLSQYTMGWFRQAPGKERELVAAIHWTSSVTDYADSVRGRFTISRDDSKNTGYLQMNSLRAEDTAVYYCAATWYYTHRGSFDYWGQGTLVTVSS
With B2 the Bmax [10] was 200 pM, the Kd [10] was 0.92 nM and the Bmax [11] was 53 pM. The Kd [11] was 0.054 nM, the Bmax [12] was 310 pM and the Kd [12] was 5 nM. It also gave an EC50 [13] of 2.16 nM, an IC50 [14] of 0.46 nM and an IC50 [15] of 1.29 nM. The IC50 [16] was 2.4 nM, the EC50 [17] was 2.16 nM and the “EC50 (read off the curve)” value [18] was ~0.2 nM. It also gave a Kd [19] of 4.06 nM, a koff [19] of 0.000197 s⁻¹ and a kon [19] of 48400 M⁻¹ s⁻¹. For the same binder, the Kd [20] was < 0.000952 nM, the koff [20] was < 1e-06 s⁻¹ and the kon [20] was 1.05e+06 M⁻¹ s⁻¹. The binding result [8] was “no binding (tested: 66.7 nM)” and the IC50 [21] was 0.797 nM.
